Data: the supplement of paper PMC7125110
± gives the standard error. Fewer inactive variants are shown than the library holds.

B1: glmS ribozyme (parent)
chain: AUAAAAGCGCCAGAACUACAGAAAUGUAGUUGACGAGGAGGAGGUUUAUCGAAUUUUCGGCGGAUGCCUCCAAA

What was measured:
Conditions in all cases: with glucosamine-6-phosphate
glucosamine-6-phosphate [1] = variants of: B1; test: self-cleavage kobs at 160 uM GlcN6P; higher = faster cleavage; RNA array
Procedure, shortened: (§1)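 Using a hybridised Cy3 probe at 37 °C, barcoded ribozyme variants transcribed in situ by E. coli RNA polymerase on sequenced MiSeq chips were monitored across tiles imaged over ~14 h. The flow contained glucosamine-6-phosphate from 40 μM to 10 mM in HEPES/KCl/Mg(OAc)2 buffer. Signals were normalised to baseline and to non-cleaving reference variants before per-tile medians were fit to one- or two-exponential decays to yield kobs. Weighted Michaelis–Menten fits across concentrations gave kcat and KM.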

glucosamine-6-phosphate [2] = variants of: B1; test: self-cleavage kobs at 640 uM GlcN6P; higher = faster cleavage; RNA array
Procedure, shortened: as §1

glucosamine-6-phosphate [3] = variants of: B1; test: self-cleavage kobs at 2500 uM GlcN6P; higher = faster cleavage; RNA array
Procedure, shortened: as §1

glucosamine-6-phosphate [4] = variants of: B1; test: self-cleavage kobs at 10000 uM GlcN6P; higher = faster cleavage; RNA array
Procedure, shortened: as §1

Variant | self-cleavage kobs at 160 uM GlcN6P (glucosamine-6-phosphate [1]) [s⁻¹] | self-cleavage kobs at 640 uM GlcN6P (glucosamine-6-phosphate [2]) [s⁻¹] | self-cleavage kobs at 2500 uM GlcN6P (glucosamine-6-phosphate [3]) [s⁻¹] | self-cleavage kobs at 10000 uM GlcN6P (glucosamine-6-phosphate [4]) [s⁻¹]
A39C A42C U46C | < 1e-05 |  |  | 
G40A A42U U49C C58G A64G C70G | < 1e-05 | < 1e-05 | < 1e-05 | 
G40A C61U C68G C70G C71G | < 1e-05 | < 1e-05 |  | 
C34U C70G | 0.000827 ± 0.0004 |  |  | 
G38U A42U G62U | < 1e-05 | < 1e-05 | < 1e-05 | 
U31G G44U G51U | < 1e-05 |  |  | 
G40C A48U C61U | < 1e-05 | < 1e-05 |  | 
A42G G51C G60U | < 1e-05 |  |  | 
G35A G63A | < 1e-05 |  |  | < 1e-05
A42U A52C C67A | < 1e-05 |  |  | 
A33G G41A C70A | < 1e-05 | < 1e-05 |  | < 1e-05
G32A G43A G63C | < 1e-05 |  | < 1e-05 | 
A36U G41A U54G | < 1e-05 | < 1e-05 |  | 
G35A G43U C50G A64G | < 1e-05 |  |  | 
G40U G51U C58U | < 1e-05 |  |  | 
C34U G37U | < 1e-05 | < 1e-05 | < 1e-05 | < 1e-05
G35A G38A A39G G63C C67U | < 1e-05 |  |  | 
A36G A42U U56C | < 1e-05 | < 1e-05 | < 1e-05 | 
C34A U55A | < 1e-05 | < 1e-05 | < 1e-05 | 
G35U G41U G43A | < 1e-05 | < 1e-05 | < 1e-05 | 
G37A A42C U46C | < 1e-05 |  | < 1e-05 | 
A39U G51U G62U C71A | < 1e-05 |  | < 1e-05 | 
A42C C58A | < 1e-05 | < 1e-05 |  | < 1e-05
G32C G38A C50G | 0.000156 ± 5.3e-05 | 0.000119 ± 3e-05 | 8.89e-05 ± 2.7e-05 | 
G38A A39U | < 1e-05 | < 1e-05 |  | 
G35A G43U C68U | < 1e-05 |  | < 1e-05 | 
C34G G37A | < 1e-05 | < 1e-05 |  | 
C34U U47A A48G U69G | < 1e-05 |  |  | 
A33U A36C G43A C70G | < 1e-05 | < 1e-05 | < 1e-05 | 
